One molecule from patent US20210332109A1 (TANAKA KIKINZOKU KOGYO K K, published 2021) can be followed below.

The target in the assay is T1, protein VZV gE (amino acid sequence at positions 48 to 88) (varicella-zoster virus).
T1 peptide: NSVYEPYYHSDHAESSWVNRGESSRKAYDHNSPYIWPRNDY
Nature of the assay: ELISA, peptide coated on the plate, antibody at 5 ug/mL. (In general: An ELISA detects its analyte on a solid surface through an enzyme-linked reagent.)

Procedure: After 16 hours, the gE solution was removed, and the well was washed three times with 300 μL of PBST (0.05% Tween 20 in PBS). The liquid remaining in the well was removed by tapping on a paper towel.
As a blocking solution, 300 μL of 5% BSA in PBST (BSA: manufactured by Oriental Yeast Co., Ltd.) was added, followed by incubation at 37° C. for 1 hour. Thereafter, the BSA solution was removed, and the well was washed three times with 300 μL of PBST (0.05% Tween 20 in PBS). The liquid remaining in the well was removed by tapping on a paper towel. […] Thereafter, the primary antibody solution was removed, and the well was washed three times with 300 μL of PBST (0.05% Tween 20 in PBS).

B1: Antibody 18 (antibody, V domains shown)
VH: EVQLQESGPGLVKPSQSLSLTCTVTGYSITSDYAWNWIRQFPGNKLEWMGYISYSGNSSYNPSLKSRISFTRDTSKNQFFLQLNSVTTEDTATYYCARDGSRGFDYWGQGTTLTVSS
VL: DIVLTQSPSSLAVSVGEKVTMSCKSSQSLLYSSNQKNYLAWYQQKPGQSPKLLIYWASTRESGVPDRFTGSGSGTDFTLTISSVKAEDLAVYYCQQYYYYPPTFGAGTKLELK
notes: also called antibody (II); monoclonal antibody produced by Hybridoma 18
Regarding B1, the binding result is “binds”.
